Data set [1] relates to transcript encoding DsRed-Express. Description: DsRed-Express levels, regulation in cis (transient transfection, flow cytometry). In kind it is cell-based, human. From the text:
To assess the capacity for ligand-responsive miRNAs to regulate gene expression in cis, we measured expression levels for the transcripts harboring the ligand-responsive miRNAs targeting GFP and La. DsRed-Express levels were quantified by flow cytometry under similar conditions as the trans-targeted gene silencing experiments. […] Transcript analysis confirmed that the predominant regulatory mechanism of ligand-responsive miRNAs in cis is mRNA destabilization (FIG. 10).
293 and Flp-In-293 cells were maintained in DMEM supplemented with 10% FBS at 37° C. in a 5% CO2—humidified incubator. Transient transfections were conducted with Fugene 6 (Roche) according to the manufacturer's instructions one day after seeding. Immediately prior to transfection, the media was supplemented with the appropriate ligand at the specified concentration. […] Three days post-transfection, the cells were trypsinized and subjected to flow cytometry analysis on a Cell Lab Quanta SC MPL (Beckman Coulter) and the resulting data was analyzed using the Flowjo software (Tree Star). […] GFP and DsRed fluorescence of viable cells were measured through a 525 nm and […] band pass filter, respectively, after excitation with a 488 nm laser. […] GFP levels were calculated as the median fluorescence of the transfected population divided by that of the untransfected population (Beisel et al., 2008). […]
In general terms: In flow cytometry, cells or beads pass a laser one at a time.

Another data set has as its system targeted GFP transcript. Description: Self-targeting miRNA circuit, GFP levels in stable 293-Flp-In cells (flow cytometry, time course). The data set is classed as cell-based, human. As to conditions: 1.5 mM theophylline for over a week; compared to th1′. An excerpt:
Ligand-responsive miRNAs can regulate genes in trans through RISC targeting and in cis through Drosha cleavage. A control system based on combining both modes of regulation into ‘self-targeting miRNAs’ may offer tighter regulation while still operating within the 3′ UTR of the transgene encoding transcript. We developed a dual-acting miRNA circuit based on the insertion of ligand-responsive miRNAs or miRNA clusters into the 3′ UTR of a targeted GFP transcript (FIG. 6A), where ligand control of Drosha cleavage is expected to impact direct destabilization of the cleaved transcript and subsequent RISC-mediated inactivation of other target transcripts. The resulting constructs were stably integrated into 293-Flp-In cells to ensure consistent expression for all constructs. […]
Stable transfection of 293-Flp-In cell lines was performed using the Flp-In recombinase system (Invitrogen) according to the manufacturer's instructions to generate isogenic stable cell lines. Integrants were selected using 200 μg/ml hygromycin B (Invitrogen), whereas stable cell lines were maintained in 50 μg/ml hygromycin B. The procedure described above for the fluorescence expression analysis of transiently transfected cell populations was used to analyze the stable cell lines with notable exceptions. […]

For data set [2], the system named is immunopurified Drosha complex. The experiment in a line: In vitro Drosha cleavage assay. The data set is classed as biochemical. The method, then:
We performed in vitro Drosha cleavage assays that mimic the first step in miRNA biogenesis to examine the relationship between bulge size and Drosha processing. RNAs with varying bulge sizes in the basal segments (FIG. 1B) were transcribed in vitro, incubated with immunopurified Drosha, and resolved by PAGE (FIG. 1C). […] Such abortive processing has been previously observed in vitro and attributed to DGCR8 recognition of the terminal loop instead of the miRNA basal segments (Han et al., 2006).
Internally radiolabeled RNAs were transcribed in vitro from an annealed template containing the T7 promoter (5′-[…]-3′, where G is the first transcribed nucleotide) using the Ampliscribe T7 transcription kit (Epicentre) according to the manufacturer's instructions with [α-32P]-GTP. Following transcription and DNase treatment, the transcription product was purified through a NucAway clean-up column (Ambion) according to the manufacturer's instructions and gel-purified by PAGE.
In vitro assays were conducted as described previously (Lee
and Kim, 2007). Briefly, the Drosha complex was immunopurified from 293T cells transiently transfected with pCK-Drosha-FLAG and pCK-DGCR8-FLAG (9:1 mass ratio). […]

Data set [3] has as its system transcript encoding the green fluorescent protein (GFP) in HEK 293 cells stably expressing GFP. The experiment in a line: Cell culture assay for miRNA activity (GFP silencing, transient transfection, flow cytometry). The data set is classed as cell-based, human. From the text:
To examine the relationship between bulge size in the basal segments and gene silencing, we developed a general cell culture assay for miRNA activity (FIG. 1D). miRNAs designed to target a transcript encoding the green fluorescent protein (GFP) were inserted into the 3′ untranslated region (UTR) of a constitutively-expressed transcript encoding the fluorescent protein DsRed-Express. Plasmid DNA encoding the DsRed-Express construct was transfected into HEK 293 cells stably expressing GFP. The level of miRNA-mediated gene silencing was determined by flow cytometry analysis, where DsRed-Express levels were used to distinguish between transfected and untransfected cells. Using the cell culture assay, miRNAs with the same bulges as in the in vitro experiments were tested for silencing efficiency. […] Therefore, proper Drosha processing and gene silencing correlate with the size of the bulge in the miRNA basal segments.
293 and Flp-In-293 cells were maintained in DMEM supplemented with 10% FBS at 37° C. in a 5% CO2—humidified incubator. Transient transfections were conducted with Fugene 6 (Roche) according to the manufacturer's instructions one day after seeding. Immediately prior to transfection, the media was supplemented with the appropriate ligand at the specified concentration. Ligand concentrations were selected to maximize the regulatory response without severely compromising cell viability over the course of the transient assays. The media was replaced two days post-transfection. Three days post-transfection, the cells were trypsinized and subjected to flow cytometry analysis on a Cell Lab Quanta SC MPL (Beckman Coulter) and the resulting data was analyzed using the Flowjo software (Tree Star). Cells were initially gated for viability by electronic volume and side scatter. GFP and DsRed fluorescence of viable cells were measured through a 525 nm and […] band pass filter, respectively, after excitation with a 488 nm laser. Moderate to high DsRed levels served as a transfection control to gate between transfected and untransfected cells. Transfected cells could be distinguished from untransfected cells with this method even when four miRNAs were present in the 3′ UTR of the DsRed-Express encoding transcript (data not shown). GFP levels were calculated as the median fluorescence of the transfected population divided by that of the untransfected population (Beisel et al., 2008). This normalization approach corrected for the bias from pleiotropic effects associated with each small molecule. All ratios were normalized such that the value for DsRed-Express lacking a miRNA under the same conditions was set to 100%.

B1: th1: SEQ ID NO. 23; GFP-targeting miRNA with a theophylline aptamer in the basal segments (nucleic acid)
chain: TCTAGAACGGGTCCTGATACCAGCGTGAGCGAGCACAAGCTGGAGTACAACTATAGTGAAGCCACAGATGTATAGTTGTACTCCAGCTTGTGCCCGCCTACGCCCTTGGCAGCAGGGCCC
modifications: expressed or natural sequence
notes: 23; GFP-targeting miRNA with a theophylline aptamer in the basal segments
As for B1, the “ligand regulation of DsRed-Express in cis” value in data set [1] (5 mM theophylline) is reported as “two copies were sufficient to introduce ligand regulation”. Also, the “DsRed silencing in cis versus copy number” value in data set [1] (one to four copies, transient transfection) is reported as “DsRed silencing increased with increasing copy number”. For the same molecule, the “GFP silencing and dynamic range of self-targeting versus non-targeting miRNAs” value in the data set with targeted GFP transcript is “improved both GFP silencing and the dynamic range”. For the same molecule, the “size of primary products of Drosha processing” value in data set [2] (in vitro transcribed miRNA, PAGE) is on record as around 61 nts. In data set [2] (presence or absence of 5 mM theophylline), the “effect of theophylline on Drosha processing” value was “theophylline inhibited proper processing”. The GFP silencing result in data set [3] (single copy, absence of ligand) is reported as “silence GFP with comparable strength”. For the same molecule, the “response of GFP levels to theophylline” value in data set [3] (transient transfection with varying theophylline concentrations) is “theophylline dose-dependent increase in GFP expression levels”. For the same molecule, the “GFP silencing and theophylline response of two miRNA copies, adjacent placement” value in data set [3] (two copies, shortest spacer (2 nt), 5 mM theophylline) was “compromised both silencing and the response to theophylline”. Besides, the “GFP silencing and theophylline response of two miRNA copies, increased spacer length” value in data set [3] (two copies, spacer up to 112 nt, 5 mM theophylline, versus single copy) was “restored and even exceeded the silencing activity and theophylline-dependence from a single copy”. In data set [3] (up to four copies separated by 112 nt spacer), the “GFP silencing versus miRNA copy number” value is “GFP silencing increased with each additional copy”. For the same molecule, the “dynamic range (ratio of GFP levels in the presence or absence of theophylline) versus copy number” value in data set [3] (up to four copies, 112 nt spacer, 5 mM theophylline) was “increased silencing and the dynamic range”.

The values above are taken from patent US9145555B2, “Integrated—ligand-responsive microRNAs” (California Institute of Technology, priority 2009, dated 2015).
